Reference: US20030162734

How the values were obtained:
[1] = target: DENN-JBD (JNK binding domain region of DENN lacking the NLS and DD regions, fused to the C-terminus of EGFP) (UniProt Q8WXG6)
[2] = target: GFP-DENN (full length DENN/MADD fused to the C-terminus of EGFP) (UniProt Q8WXG6)

## JNK (c-Jun N-terminal kinase), endogenous in NSC19 cells; p54 and p46 isoforms of phosphorylated JNK
[1]
  p54 band of phosphorylated JNK on Western immunoblot, NSC19 clones, 24 h Aβ exposure: DENN and DENN-JBD affected 3 to 4-fold increase in the p54 band with Aβ exposure
  phosphorylated c-Jun (Ser73) on immunoblot, NSC19 clones: Expression of ΔMEKK1, DENN, DENN-CT and DENN-JBD showed sustained levels of phosphorylated c-Jun
[2]
  p54 band of phosphorylated JNK on Western immunoblot, NSC19 clones, 24 h Aβ exposure: DENN and DENN-JBD affected 3 to 4-fold increase in the p54 band with Aβ exposure
